For series [1], the system named is 5' NS-TALEN (in cells) (artificial (TALE-FokI)). As to the kind of experiment: cell_activity. As to conditions: NS pair in HeLa-tat-III/LTR/d1EGFP cells; 2 of 23 clones mutated.
Series [2] concerns 5' NS-TALEN (artificial (TALE-FokI)). Nature of the series: cleavage_in_vitro. The conditions noted are these: pair with 3' HT-TALEN; 747 bp PCR template, 30 C.

For the sequence “TCTCTGGTTAGACCAGATCT (double strand) [5' TALE binding target, HIV-1 LTR TAR]”, the results for the activity in series [1] and in series [2] were 30 % GFP loss and 42 % cleavage, respectively.

For the origin of these results see patent publication US20180112219.
